Assays:
[1] = molecular target: native constant domain of human IgG1 coexpressed with fucosyltransferase (human, UniProt P01857-1 99-330 = IgG part); assay: not described
[2] = molecular target: T1, ELAM-Rg, soluble ELAM-1-IgG1 chimera (ELAM-1 extracellular domain fused to hinge, CH2 and CH3 domains of … (human, UniProt P16581 22-556, limits assumed)); assay: solid phase: α1-AGP adsorbed to wells, ELAM-Rg at 1 µg/ml, radioiodinated goat anti-human IgG, gamma counter
T1 construct: extracellular domain; Made in COS cells, recovered on protein A-agarose; appeared as disulfide-linked dimers; In adhesion assays it was captured on dishes coated with goat anti-human IgG; also called ELAM-1-Rg; ELAM-1-IgG1 fusion protein; not shown: human IgG1 hinge, CH2 and CH3 domains (genomic fragment of Aruffo et al., Cell 61:1303, 1990)
T1 sequence (looked up): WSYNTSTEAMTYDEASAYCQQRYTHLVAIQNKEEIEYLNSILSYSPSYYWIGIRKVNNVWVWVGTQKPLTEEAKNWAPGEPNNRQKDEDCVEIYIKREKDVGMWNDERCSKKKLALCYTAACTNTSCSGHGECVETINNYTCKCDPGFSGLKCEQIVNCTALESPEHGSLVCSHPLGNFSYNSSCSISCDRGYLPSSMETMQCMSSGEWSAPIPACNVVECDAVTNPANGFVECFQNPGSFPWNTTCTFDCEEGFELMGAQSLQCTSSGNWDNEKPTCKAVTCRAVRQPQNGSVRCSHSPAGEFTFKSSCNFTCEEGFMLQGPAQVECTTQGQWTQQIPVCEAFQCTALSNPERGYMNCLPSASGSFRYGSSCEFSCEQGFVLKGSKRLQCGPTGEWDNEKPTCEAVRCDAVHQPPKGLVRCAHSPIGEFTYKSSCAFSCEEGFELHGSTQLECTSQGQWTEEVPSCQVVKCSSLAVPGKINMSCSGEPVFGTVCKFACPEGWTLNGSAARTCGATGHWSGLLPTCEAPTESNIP
Experimental: Amniotic fluid fucosyltransferase was isolated by affinity chromatography and evaluated for its ability to convert α_1-AGP into an ELAM-1 ligand as follows. α(1,3) fucosyltransferase was isolated from concentrated amniotic fluid by fetuin-agarose chromatography as previously described in Hanisch et al. (*Carbohydr. Res.* 178:23, 1988) and Mitsakos et al. (*Biol. Chem. Hoppe-Seyler* 369:661, 1988). 0.8 μCi GDP^14C-fucose (225 Ci/mole) and 100 μg of bovine α_1-AGP (Sigma, St. Louis, Mo.) were added to a reaction mix containing 25 mM Tris-HCl pH 7.0, 35 mM MgCl_2 and 1 mM ATP in a final volume of 120 μl. The reaction was allowed to proceed for 24 h. at 37°, at which time approximately 10% of the ^14C-labeled fucose had been incorporated into TCA-insoluble material. Unincorporated label was removed by centrifugal ultrafiltration (Centricon 10, Amicon, Danvers, Mass.). 20 μl of a 1:5 dilution of the labelled material, or 10 μl of a 1:5 dilution of a similarly constituted reaction mixture lacking labelled GDP-fucose, was adsorbed to plastic dishes (as described above) or to 96 well microtiter plates (Falcon 3911, Becton Dickinson, Oxnard, Calif.). […] Following washing, labelled antibody binding was measured in a gamma counter. Results shown in FIG. 9 are expressed as the mean±standard deviation of quadruplicate determinations and are representative of two independent experiments.

B1: ELAM-1 (form in this assay not stated) (receptor, UniProt P16581 22-556, looked up)
chain: WSYNTSTEAMTYDEASAYCQQRYTHLVAIQNKEEIEYLNSILSYSPSYYWIGIRKVNNVWVWVGTQKPLTEEAKNWAPGEPNNRQKDEDCVEIYIKREKDVGMWNDERCSKKKLALCYTAACTNTSCSGHGECVETINNYTCKCDPGFSGLKCEQIVNCTALESPEHGSLVCSHPLGNFSYNSSCSISCDRGYLPSSMETMQCMSSGEWSAPIPACNVVECDAVTNPANGFVECFQNPGSFPWNTTCTFDCEEGFELMGAQSLQCTSSGNWDNEKPTCKAVTCRAVRQPQNGSVRCSHSPAGEFTFKSSCNFTCEEGFMLQGPAQVECTTQGQWTQQIPVCEAFQCTALSNPERGYMNCLPSASGSFRYGSSCEFSCEQGFVLKGSKRLQCGPTGEWDNEKPTCEAVRCDAVHQPPKGLVRCAHSPIGEFTYKSSCAFSCEEGFELHGSTQLECTSQGQWTEEVPSCQVVKCSSLAVPGKINMSCSGEPVFGTVCKFACPEGWTLNGSAARTCGATGHWSGLLPTCEAPTESNIP
[1]
  binding result: no binding

B2: bovine α1-acid glycoprotein fucosylated in vitro with amniotic fluid α(1,3)fucosyltransferase and GDP-fucose (other, UniProt Q3SZR3 19-202, looked up)
chain: QSPECANLMTVAPITNATMDLLSGKWFYIGSAFRNPEYNKSARAIQAAFFYLEPRHAEDKLITREYQTIEDKCVYNCSFIKIYRQNGTLSKVESDREHFVDLLLSKHFRTFMLAASWNGTKNVGVSFYADKPEVTQEQKKEFLDVIKCIGIQESEIIYTDEKKDACGPLEKQHEEERKKETEAS
modifications: N-linked glycans fucosylated in vitro (sialyl-Le^X determinants)
notes: Adsorbed to plastic or to microtiter wells; also called in vitro-fucosylated α1-acid glycoprotein; enzymatically-fucosylated α1-AGP
[2]
  binding result: binds

From patent publication US6613746 (GENERAL HOSPITAL, dated 2003)
